Reference: US12377130B2, “Pharmaceutical composition comprising CCN5 as active ingredient, for preventing or treating retinal diseases” (OLIVES BIOTHERAPEUTICS INC., priority 2018, dated 2025)

Legend:
Assay type in all cases: cell-based, human
[1] = test system: ARPE-19 cells; assay: Prevention of TGF-β-induced fibrotic deformation of ARPE-19 cells (microscopy, Western blotting, qPCR, immunofluorescence); settings: FIG. 3
Description: A retinal pigment epithelial cell line (ARPE-19; ATCC, USA) was cultured in a 5% CO2 incubator at 37° C. using Dulbecco's modified Eagle's medium and Ham's F12 Nutrient Mixture medium (DMEM/F12; Welgene, Korea), containing 1% antibiotics (Gibco, USA) and 10% fetal bovine serum (FBS; HyClone, USA). The medium was replaced with fresh medium every other day. When the cells were cultured to a certain extent in a culture plate, these cells were subcultured using 0.25% trypsin/0.02% EDTA (Gibco, USA). […]
Cells that had been grown by being seeded in a 12-well culture plate, each well containing a coverslip, were fixed with 4% formaldehyde and treated with 0.2% Triton X-100 for 10 minutes. […] Observation was performed under a fluorescence microscope.
RNA was extracted using TRIZOL™ (Invitrogen, USA) reagent. cDNA was synthesized using a reverse transcription kit (Promega, USA), and real-time polymerase chain reaction was performed using SYBR® green (TAKARA, Japan). The level of RNA was analyzed by analyzing the amplification reaction curve, and this analysis was performed in triplicate or quadruplicate. The relative expression level of genes was quantified by normalization to 18s rRNA. […]

[2] = test system: ARPE-19 cells; assay: Restoration of already formed TGF-β-induced fibrotic deformation of ARPE-19 cells; settings: then agent (restoration); for expression of mesenchymal (α-SMA, vimentin, fibronectin) and epithelial (ZO-1, occludin) marker proteins (Western blotting): TGF-β 2 days, FIGS. 6c, 8b, 12b, 13b
Description: The cultured cells were divided into the following two groups and subjected to drug treatment: one group in which induction of differentiation of retinal pigment epithelial cells into mesenchymal cells was suppressed; and the other group in which retinal pigment epithelial cells that had been induced to differentiate into mesenchymal cells were caused to return to normal retinal pigment epithelial cells. The ARPE-19 cells were grown in serum-free medium for 24 hours. Then, the cells were treated with AdCCN5 at 50 multiplicity of infection (MOI) followed by 10 ng/ml of TGF-β2 (PeproTech Korea, Korea), or treated with TGF-β2 followed by AdCCN5.
For in vitro experiments, the cultured ARPE-19 cells were washed with phosphate buffered saline (PBS), and suspended with a mixed solution of cold RIPA buffer (1% NP-40, 50 mM Tris-HCl [pH 7.4], 150 mM NaCl, and 10 mM NaF) and a protease inhibitor cocktail (Roche, Germany). The cell suspension was subjected to treatment with an ultrasonic generator for 5 minutes at an amplitude of 5% with a cycle of 2 seconds on/1 second off.
Cells that had been grown by being seeded in a 12-well culture plate, each well containing a coverslip, were fixed with 4% formaldehyde and treated with 0.2% Triton X-100 for 10 minutes. The cells were blocked with a diluted solution of 5% bovine serum albumin in PBS, and incubated with anti-ZO-1 and anti-α-SMA antibodies overnight at 4° C. For secondary antibodies, the cells were incubated for 1 hour at room temperature with FITC- or Alexa Fluor 594-conjugated secondary antibodies, TEXAS RED®-conjugated phalloidin (Invitrogen, USA) for f-actin staining, and Hoechst 33342 (Invitrogen, USA) for nuclear staining. The results were observed using an epifluorescence microscope (Zeiss, Germany). For retinal flat-mount experiments, the eyes were enucleated from the mice, and each eye was fixed in 4% formaldehyde for 24 hours. […] Observation was performed under a fluorescence microscope. […]

[3] = test system: ARPE-19 cells; assay: Anti-VEGF drug-induced fibrotic deformation of ARPE-19 cells, simultaneous treatment with CCN5 protein; settings: for expression of CCN2 on treatment with anti-VEGF drug / expression of CCN5 on treatment with anti-VEGF drug: bevacizumab 0.25 mg/ml, ranibizumab 0.125 mg/ml, aflibercept 0.5 mg/ml
[4] = test system: ARPE-19 cells; assay: Bevacizumab-induced fibrotic deformation of ARPE-19 cells and prevention by AdCCN5; settings: bevacizumab 0.25 mg/ml
Description: Recombinant TGF-β2 was purchased from PeproTech Korea (Korea). ARPE-19 cells were treated with the recombinant TGF-β2 at 10 ng/ml. Recombinant EGF and FGF-2 were purchased from Invitrogen (USA). ARPE-19 cells were treated with 1 mM of EGTA, 10 ng/ml of EGF, and 20 ng/ml of FGF-2.
Use of an anti-VEGF drug that inhibits neovascularization is a widely used method for treating wet age-related macular degeneration. However, this method has a side effect of causing morphological and functional changes in RPE cells. […] The specific experimental process is shown in Example 2, and this experimental process is schematically illustrated in FIG. 11a. The experimental results are illustrated in FIGS. 11b to 11d.

[5] = test system: ARPE-19 cells; assay: Induction of fibrotic deformation of ARPE-19 cells by TGF-β
Description: The mature ARPE-19 cells form a cobblestone-like monolayer and express marker proteins specific for epithelial cells. The cultured ARPE-19 cells were treated with TGF-β at 5 ng/ml or 10 ng/ml for 2 days (FIG. 1a). The results are illustrated in FIGS. 1b to 1d.

[6] = TGF-β 5 or 10 ng/ml, 2 days, FIG. 1c

Molecule: Cc1cccc(-c2nn(C(=S)Nc3ccccc3)cc2-c2ccnc3ccccc23)n1 [A83-01, reference compound]
- TGF-β-induced fibrotic deformation (Western blotting), CCN5 compared with A83-01 [1]: inhibited TGF-β-induced fibrotic deformation of ARPE-19 cells
- expression of mesenchymal (α-SMA, vimentin, fibronectin) and epithelial (ZO-1, occludin) marker proteins (Western blotting) [2]: failed to normalize abnormal changes in expression of mesenchymal marker proteins (α-SMA, vimentin, and fibronectin) and epithelial marker proteins (ZO-1 and occludin)

Molecule: aflibercept: anti-VEGF drug sold under the brand name EYLEA
- expression of CCN2 on treatment with anti-VEGF drug ([3]; FIG. 14b): increased expression of CCN2
- expression of CCN5 on treatment with anti-VEGF drug ([3]; FIG. 14b): decreased expression of CCN5

Molecule: bevacizumab: anti-VEGF monoclonal antibody drug sold under the brand name Avastin
- morphology of ARPE-19 cells on treatment with bevacizumab ([4]; FIG. 11b): the morphology of the cells changed
- expression of CCN5 on treatment with bevacizumab (Western blotting) ([4]; FIG. 11c): the expression of CCN5 is decreased by bevacizumab
- expression of CCN5 on treatment with anti-VEGF drug ([3]; FIG. 14b): decreased expression of CCN5

Molecule: ranibizumab: anti-VEGF monoclonal antibody fragment (Fab) sold under the brand name LUCENTIS
- expression of CCN2 on treatment with anti-VEGF drug ([3]; FIG. 14b): increased expression of CCN2
- expression of CCN5 on treatment with anti-VEGF drug ([3]; FIG. 14b): decreased expression of CCN5

B1: CCN5 protein: purified human-derived CCN5 protein, extracellular matrix-related protein of the CCN family, also called WISP-2 (protein)
chain: QLCPTPCTCPWPPPRCPLGVPLVLDGCGCCRVCARRLGEPCDQLHVCDASQGLVCQPGAGPGGRGALCLLAEDDSSCEVNGRLYREGETFQPHCSIRCRCEDGGFTCVPLCSEDVRLPSWDCPHPRRVEVLGKCCPEWVCGQGGGLGTQPLPAQGPQFSGLVSSLPPGVPCPEWSTAWGPCSTTCGLGMATRVSNQNRFCRLETQRRLCLSRPCPPSRGRSPQNSAF
modifications: CCN5(except signal peptide, human)
- TGF-β-induced fibrotic deformation (Western blotting), CCN5 compared with A83-01 [1]: inhibited TGF-β-induced fibrotic deformation of ARPE-19 cells to the same level as A83-01
- expression of mesenchymal and epithelial marker proteins (Western blotting) ([3]; simultaneous treatment with anti-VEGF drugs): inhibited increased expression of mesenchymal marker proteins (α-SMA, vimentin, and fibronectin) and decreased expression of epithelial marker proteins (ZO-1 and occludin)
- anti-VEGF drug-induced decrease of CCN5 and increase of CCN2 expression, effect of CCN5 protein ([3]; simultaneous treatment with anti-VEGF drugs, FIG. 14b): this phenomenon was inhibited by CCN5 protein
- tight junction, expression of α-SMA and formation of f-actin (immunofluorescence staining) ([3]; simultaneous treatment with anti-VEGF drugs, FIG. 14c): inhibited disruption of tight junction, increased expression of α-SMA, and formation of f-actin
- expression of mesenchymal (α-SMA, vimentin, fibronectin) and epithelial (ZO-1, occludin) marker proteins (Western blotting) [2]: inhibited increased expression of mesenchymal marker proteins (α-SMA, vimentin, and fibronectin) and restored decreased expression of epithelial marker proteins (ZO-1 and occludin) to a normal level
- tight junction (immunofluorescence staining) ([2]; TGF-β, FIGS. 6d, 12c, 13c): restore the tight junction, disrupted by TGF-β, to normal

B2: TGF-β: Recombinant TGF-β2 (PeproTech), trigger for fibrotic deformation of RPE cells (protein, UniProt P61812 303-414, looked up)
Transforming growth factor …: ALDAAYCFRNVQDNCCLRPLYIDFKRDLGWKWIHEPKGYNANFCAGACPYLWSSDTQHSRVLSLYNTINPEASASPCCVSQDLEPLTILYYIGKTPKIEQLSNMIVKSCKCS
- α-SMA, f-actin and tight junction after treatment with TGF-β (immunofluorescence staining) ([5]; FIG. 1d): the expression of α-SMA and f-actin is increased and the formation of tight junction is inhibited
- morphology of ARPE-19 cells after treatment with TGF-β ([5]; TGF-β 5 or 10 ng/ml, 2 days, FIG. 1b): acquired a fibroblastic morphology
- expression level of CCN5 protein after treatment with TGF-β [5, 6]: significantly decreased the expression level of human-derived CCN5 protein
- expression of mesenchymal and epithelial marker proteins after treatment with TGF-β [5, 6]: the expression of the mesenchymal marker proteins, α-SMA, vimentin, fibronectin, and type I collagen, was increased, whereas the expression of the epithelial marker proteins, ZO-1 and occludin, was significantly decreased
